These results are taken from article PMC3870659.

For the assay, the target named is integrin α4β7 on freshly isolated human primary B cells (human (endogenous in primary B cells)) (UniProt P13612).
Chain of UniProt P13612 (P13612 34-1032, chain 1 of 2): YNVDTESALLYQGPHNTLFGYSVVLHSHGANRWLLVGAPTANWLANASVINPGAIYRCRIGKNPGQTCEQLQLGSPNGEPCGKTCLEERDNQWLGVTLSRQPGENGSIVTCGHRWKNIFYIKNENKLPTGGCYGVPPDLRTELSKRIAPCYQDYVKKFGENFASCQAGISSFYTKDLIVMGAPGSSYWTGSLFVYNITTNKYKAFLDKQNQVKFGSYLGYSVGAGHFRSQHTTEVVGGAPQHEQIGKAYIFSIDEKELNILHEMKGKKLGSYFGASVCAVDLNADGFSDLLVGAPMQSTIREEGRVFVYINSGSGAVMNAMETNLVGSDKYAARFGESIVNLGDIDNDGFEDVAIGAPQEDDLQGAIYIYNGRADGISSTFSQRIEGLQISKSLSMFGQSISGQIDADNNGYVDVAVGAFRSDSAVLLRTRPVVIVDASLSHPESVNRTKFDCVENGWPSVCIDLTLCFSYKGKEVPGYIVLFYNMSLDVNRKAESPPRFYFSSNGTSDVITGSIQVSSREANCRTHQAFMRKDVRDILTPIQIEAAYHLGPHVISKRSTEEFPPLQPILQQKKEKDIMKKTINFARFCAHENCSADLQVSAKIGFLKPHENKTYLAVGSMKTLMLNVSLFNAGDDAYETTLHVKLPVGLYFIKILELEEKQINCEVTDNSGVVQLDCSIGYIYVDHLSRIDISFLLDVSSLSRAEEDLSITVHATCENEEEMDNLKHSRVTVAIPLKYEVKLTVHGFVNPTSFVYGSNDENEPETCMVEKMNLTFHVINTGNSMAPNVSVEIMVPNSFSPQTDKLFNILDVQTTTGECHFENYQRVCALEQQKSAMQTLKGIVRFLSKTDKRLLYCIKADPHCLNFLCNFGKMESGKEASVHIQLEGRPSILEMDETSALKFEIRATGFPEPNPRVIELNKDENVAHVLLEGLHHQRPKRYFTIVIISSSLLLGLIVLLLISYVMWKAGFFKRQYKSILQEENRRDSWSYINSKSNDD
Chain of UniProt P13612 (P26010 20-798, chain 2 of 2, further chain): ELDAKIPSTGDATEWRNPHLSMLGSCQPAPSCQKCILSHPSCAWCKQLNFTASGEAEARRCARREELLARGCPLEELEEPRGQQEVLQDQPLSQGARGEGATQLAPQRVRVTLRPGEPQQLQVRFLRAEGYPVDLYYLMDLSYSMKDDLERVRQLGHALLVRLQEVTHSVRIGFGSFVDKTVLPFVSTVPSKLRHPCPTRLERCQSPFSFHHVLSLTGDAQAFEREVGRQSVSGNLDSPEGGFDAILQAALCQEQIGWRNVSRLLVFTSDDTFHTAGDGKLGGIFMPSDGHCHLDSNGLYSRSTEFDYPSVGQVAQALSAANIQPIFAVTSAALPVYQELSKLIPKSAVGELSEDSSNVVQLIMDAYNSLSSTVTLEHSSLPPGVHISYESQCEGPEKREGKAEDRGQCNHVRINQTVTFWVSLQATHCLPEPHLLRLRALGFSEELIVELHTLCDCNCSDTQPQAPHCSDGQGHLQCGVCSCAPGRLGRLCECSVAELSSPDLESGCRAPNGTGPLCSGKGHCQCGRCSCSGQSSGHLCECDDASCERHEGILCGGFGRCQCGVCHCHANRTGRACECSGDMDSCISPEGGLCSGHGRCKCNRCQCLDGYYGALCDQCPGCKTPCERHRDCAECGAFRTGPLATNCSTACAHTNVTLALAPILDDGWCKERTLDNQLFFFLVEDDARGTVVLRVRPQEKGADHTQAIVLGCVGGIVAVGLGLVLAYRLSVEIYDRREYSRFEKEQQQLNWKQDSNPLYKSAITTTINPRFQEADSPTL

As to “R66M gp120 (HIV-1 envelope protein gp120 of the early viral isolate R66M, subtype A/C) (natural protein)”, the FCRL4 mRNA (microarray) in anti-IgM + CpG stimulated B cells, 6 h with gp120 turned out to be 8 fold.
